Data on nine molecules can be found in publication PMC6974733, “Rap1‐mediated nucleosome displacement can regulate gene expression in senescent cells without impacting the pace of senescence”.

Series [1] addresses histone H3/H4 tetramers, P61830;P02309. The series is described as follows: GST pull-down, H3 immunoblot quantitation. The conditions noted are these: chain shown with the change, read off a plot; for response: 2 μM Rap1 truncated constructs, 2 μM H3/H4, 400 mM NaCl, N = 3, scale: relative H3 signal; for ratio to parent: 0.5 μM GST-SANT, 0.5 μM histones, 400 mM NaCl, N = 2, parent: est. 1.0. In general terms: Immunoblotting shows a protein as a band on a membrane.

The target in series [2] is T1, Rap1 (Saccharomyces cerevisiae? (budding …, UniProt P11938 1-827)).
T1 sequence: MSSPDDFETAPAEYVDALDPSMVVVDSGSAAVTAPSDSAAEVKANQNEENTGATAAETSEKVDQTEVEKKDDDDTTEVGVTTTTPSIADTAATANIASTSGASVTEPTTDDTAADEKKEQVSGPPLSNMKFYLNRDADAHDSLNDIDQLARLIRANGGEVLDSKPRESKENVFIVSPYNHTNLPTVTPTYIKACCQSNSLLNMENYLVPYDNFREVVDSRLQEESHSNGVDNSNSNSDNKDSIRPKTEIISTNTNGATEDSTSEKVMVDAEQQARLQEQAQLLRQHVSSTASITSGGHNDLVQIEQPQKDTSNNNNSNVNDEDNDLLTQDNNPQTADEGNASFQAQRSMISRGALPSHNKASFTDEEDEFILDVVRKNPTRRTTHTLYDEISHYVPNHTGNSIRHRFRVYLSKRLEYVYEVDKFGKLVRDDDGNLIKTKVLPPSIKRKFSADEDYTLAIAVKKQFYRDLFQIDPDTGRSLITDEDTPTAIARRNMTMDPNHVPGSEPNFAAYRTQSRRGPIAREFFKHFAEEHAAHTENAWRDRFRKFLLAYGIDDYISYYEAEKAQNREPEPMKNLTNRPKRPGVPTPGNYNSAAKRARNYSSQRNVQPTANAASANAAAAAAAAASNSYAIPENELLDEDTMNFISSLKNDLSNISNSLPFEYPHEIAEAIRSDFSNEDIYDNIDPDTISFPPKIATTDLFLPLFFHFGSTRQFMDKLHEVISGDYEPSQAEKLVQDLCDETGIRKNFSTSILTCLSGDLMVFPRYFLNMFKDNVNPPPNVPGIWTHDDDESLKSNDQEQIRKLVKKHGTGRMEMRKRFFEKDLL
The series is described as follows: EMSA; 0.5-100 nM protein; lower affinity than Rap1SHY; 20 mM Hepes-KOH pH 8, 100 mM KCl, 10 ug/ml BSA, 1 mM EDTA, 2 mM MgCl2, 5% glycerol, 30 min at room temperature; 0.5 nM 32P duplex; 6% gel run at 4 C; concentrations of active protein (~85% active). To be noted: protein: recombinant; tags: N-terminal GST, C-terminal 6xHis (Ni-NTA and GST resin purified); label: 32P 5' end label on one strand (PNK); blunt. For orientation: Mobility shift assays separate free from complexed probe on a gel.

Series [3] has as its target T2, Rap1SHY (Saccharomyces cerevisiae? (budding …, UniProt P11938 1-827, S392A;H393A;Y394A)).
T2 sequence: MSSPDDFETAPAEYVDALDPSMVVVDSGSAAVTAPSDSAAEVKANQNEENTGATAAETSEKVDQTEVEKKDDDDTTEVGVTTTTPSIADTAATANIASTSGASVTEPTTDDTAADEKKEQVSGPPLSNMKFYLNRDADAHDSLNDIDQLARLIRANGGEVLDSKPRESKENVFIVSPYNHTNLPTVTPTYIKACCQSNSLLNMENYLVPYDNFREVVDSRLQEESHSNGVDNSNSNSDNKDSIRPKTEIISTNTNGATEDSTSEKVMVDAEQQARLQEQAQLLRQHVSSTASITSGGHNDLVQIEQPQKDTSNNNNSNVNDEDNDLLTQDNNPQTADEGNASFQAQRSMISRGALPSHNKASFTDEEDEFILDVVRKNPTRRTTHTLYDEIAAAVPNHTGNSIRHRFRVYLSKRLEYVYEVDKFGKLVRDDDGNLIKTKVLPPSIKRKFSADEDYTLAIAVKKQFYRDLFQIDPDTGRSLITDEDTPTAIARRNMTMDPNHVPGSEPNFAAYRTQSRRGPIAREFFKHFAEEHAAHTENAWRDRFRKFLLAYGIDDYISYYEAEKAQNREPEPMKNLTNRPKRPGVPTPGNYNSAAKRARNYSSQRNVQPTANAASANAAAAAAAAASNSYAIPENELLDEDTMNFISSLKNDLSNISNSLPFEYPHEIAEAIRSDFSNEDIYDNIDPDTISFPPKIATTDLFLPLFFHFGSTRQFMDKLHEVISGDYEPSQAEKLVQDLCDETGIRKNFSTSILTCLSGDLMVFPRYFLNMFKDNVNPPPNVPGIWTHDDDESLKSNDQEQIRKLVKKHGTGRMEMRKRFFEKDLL
As to the kind of experiment: EMSA; 0.5-100 nM protein; higher affinity than Rap1; 20 mM Hepes-KOH pH 8, 100 mM KCl, 10 ug/ml BSA, 1 mM EDTA, 2 mM MgCl2, 5% glycerol, 30 min at room temperature; 0.5 nM 32P duplex; 6% gel run at 4 C; concentrations of active protein (~85% active). To be noted: protein: recombinant; tags: N-terminal GST, C-terminal 6xHis (pGST-RAP1 SHY-6xHis); label: 32P 5' end label on one strand (PNK); blunt.

The target of series [4] is T1, Rap1. As to the kind of experiment: EMSA; 5-500 nM protein; affinity similar to Rap1SHY; 20 mM Hepes-KOH pH 8, 100 mM KCl, 10 ug/ml BSA, 1 mM EDTA, 2 mM MgCl2, 5% glycerol, 30 min at room temperature; 0.5 nM 32P duplex; 6% gel run at 4 C; concentrations of active protein (~85% active). To be noted: protein: recombinant; tags: N-terminal GST, C-terminal 6xHis (Ni-NTA and GST resin purified); label: 32P 5' end label on one strand (PNK); blunt.

The target in series [5] is T2, Rap1SHY. The series is described as follows: EMSA; 5-500 nM protein; affinity similar to Rap1; 20 mM Hepes-KOH pH 8, 100 mM KCl, 10 ug/ml BSA, 1 mM EDTA, 2 mM MgCl2, 5% glycerol, 30 min at room temperature; 0.5 nM 32P duplex; 6% gel run at 4 C; concentrations of active protein (~85% active). The conditions noted are these: protein: recombinant; tags: N-terminal GST, C-terminal 6xHis (pGST-RAP1 SHY-6xHis); label: 32P 5' end label on one strand (PNK); blunt.

Series [6] deals with T1, Rap1. The series is described as follows: EMSA; 5-50 nM protein; affinity similar to Rap1SHY; 20 mM Hepes-KOH pH 8, 100 mM KCl, 10 ug/ml BSA, 1 mM EDTA, 2 mM MgCl2, 5% glycerol, 30 min at room temperature; 0.5 nM 32P duplex; 6% gel run at 4 C; concentrations of active protein (~85% active). The conditions noted are these: protein: recombinant; tags: N-terminal GST, C-terminal 6xHis (Ni-NTA and GST resin purified); label: 32P 5' end label on one strand (PNK); blunt.

Series [7] addresses T2, Rap1SHY. As to the kind of experiment: EMSA; 5-50 nM protein; affinity similar to Rap1; 20 mM Hepes-KOH pH 8, 100 mM KCl, 10 ug/ml BSA, 1 mM EDTA, 2 mM MgCl2, 5% glycerol, 30 min at room temperature; 0.5 nM 32P duplex; 6% gel run at 4 C; concentrations of active protein (~85% active). The conditions noted are these: protein: recombinant; tags: N-terminal GST, C-terminal 6xHis (pGST-RAP1 SHY-6xHis); label: 32P 5' end label on one strand (PNK); blunt.

B1: GST-Rap1^CΔ, P11938 S392A; H393A; Y394A (protein)
chain: MSSPDDFETAPAEYVDALDPSMVVVDSGSAAVTAPSDSAAEVKANQNEENTGATAAETSEKVDQTEVEKKDDDDTTEVGVTTTTPSIADTAATANIASTSGASVTEPTTDDTAADEKKEQVSGPPLSNMKFYLNRDADAHDSLNDIDQLARLIRANGGEVLDSKPRESKENVFIVSPYNHTNLPTVTPTYIKACCQSNSLLNMENYLVPYDNFREVVDSRLQEESHSNGVDNSNSNSDNKDSIRPKTEIISTNTNGATEDSTSEKVMVDAEQQARLQEQAQLLRQHVSSTASITSGGHNDLVQIEQPQKDTSNNNNSNVNDEDNDLLTQDNNPQTADEGNASFQAQRSMISRGALPSHNKASFTDEEDEFILDVVRKNPTRRTTHTLYDEIAAAVPNHTGNSIRHRFRVYLSKRLEYVYEVDKFGKLVRDDDGNLIKTKVLPPSIKRKFSADEDYTLAIAVKKQFYRDLFQIDPDTGRSLITDEDTPTAIARRNMTMDPNHVPGSEPNFAAYRTQSRRGPIAREFFKHFAEEHAAHTENAWRDRFRKFLLAYGIDDYISYYEAEKAQNREPEPMKNLTNRPKRPGVPTPGNYNSAAKRAR
Regarding B1, in series [1] (parent: est. 0.68), the response is 0.47.

B2: GST-SANT, P11938 D389A; E390A; I391A (protein)
chain: KASFTDEEDEFILDVVRKNPTRRTTHTLYAAASHYVPNHTGNSIRHRFRVY
For the molecule B2, the ratio to parent in series [1] stood at 0.82.

B3: GST-SANT, P11938 S392A; H393A; Y394A (protein)
chain: KASFTDEEDEFILDVVRKNPTRRTTHTLYDEIAAAVPNHTGNSIRHRFRVY
In the case of B3, the ratio to parent in series [1] turned out to be 0.21.

B4: GST-SANT, P11938 H398A; T399A; G400A (protein)
chain: KASFTDEEDEFILDVVRKNPTRRTTHTLYDEISHYVPNAAANSIRHRFRVY
Turning to B4, the ratio to parent in series [1] was found to be 0.62.

B5: GST-SANT, P11938 N401A; S402A; I403A (protein)
chain: KASFTDEEDEFILDVVRKNPTRRTTHTLYDEISHYVPNHTGAAARHRFRVY
As for B5, the ratio to parent in series [1] was 0.97.

B6: GST-Rap1^643Δ S392A; H393A; Y394A (protein)
chain: MSSPDDFETAPAEYVDALDPSMVVVDSGSAAVTAPSDSAAEVKANQNEENTGATAAETSEKVDQTEVEKKDDDDTTEVGVTTTTPSIADTAATANIASTSGASVTEPTTDDTAADEKKEQVSGPPLSNMKFYLNRDADAHDSLNDIDQLARLIRANGGEVLDSKPRESKENVFIVSPYNHTNLPTVTPTYIKACCQSNSLLNMENYLVPYDNFREVVDSRLQEESHSNGVDNSNSNSDNKDSIRPKTEIISTNTNGATEDSTSEKVMVDAEQQARLQEQAQLLRQHVSSTASITSGGHNDLVQIEQPQKDTSNNNNSNVNDEDNDLLTQDNNPQTADEGNASFQAQRSMISRGALPSHNKASFTDEEDEFILDVVRKNPTRRTTHTLYDEIAAAVPNHTGNSIRHRFRVYLSKRLEYVYEVDKFGKLVRDDDGNLIKTKVLPPSIKRKFSADEDYTLAIAVKKQFYRDLFQIDPDTGRSLITDEDTPTAIARRNMTMDPNHVPGSEPNFAAYRTQSRRGPIAREFFKHFAEEHAAHTENAWRDRFRKFLLAYGIDDYISYYEAEKAQNREPEPMKNLTNRPKRPGVPTPGNYNSAAKRARNYSSQRNVQPTANAASANAAAAAAAAASNSYAIPENELLDEDT
Take B6: in series [1] (parent: est. 1.3), the response was 0.71.

B7: TeloA telomeric sequence (dsDNA)
DNA 1: GCCGCACACCCACACACCAGTG
DNA 2: CACTGGTGTGTGGGTGTGCGGC
With B7, the binding result in series [2] and in series [3] was “binds” each time.

B8: GAC1 NRTS promoter (dsDNA)
DNA 1: AATAATACATCACATTAACTGTCTATAAGAGGCTGGTAC
DNA 2: GTACCAGCCTCTTATAGACAGTTAATGTGATGTATTATT
On to B8, for which the “dissociation constant (Kd)” value in series [4] and in series [5] was ~10 fold vs TEF2 (printed: Kd approximately 10-fold lower than in B; titration range suggests affinity is meant) throughout.

B9: TEF2 promoter Rap1 site (dsDNA)
DNA 1: TGTTGCACCCACACATTTA
DNA 2: TAAATGTGTGGGTGCAACA
Turning to B9, the binding result in series [6] and in series [7] was “binds” in each case.
